From patent publication US20110117021A1 (BIOTIE THERAPIES, published 2011)

T1: recombinant human Vascular Adhesion Protein-1 (rhVAP-1), purified from CHO cells (human, UniProt Q16853 1-763, limits assumed)
T1 construct: also called recombinant human VAP-1
T1 sequence (looked up): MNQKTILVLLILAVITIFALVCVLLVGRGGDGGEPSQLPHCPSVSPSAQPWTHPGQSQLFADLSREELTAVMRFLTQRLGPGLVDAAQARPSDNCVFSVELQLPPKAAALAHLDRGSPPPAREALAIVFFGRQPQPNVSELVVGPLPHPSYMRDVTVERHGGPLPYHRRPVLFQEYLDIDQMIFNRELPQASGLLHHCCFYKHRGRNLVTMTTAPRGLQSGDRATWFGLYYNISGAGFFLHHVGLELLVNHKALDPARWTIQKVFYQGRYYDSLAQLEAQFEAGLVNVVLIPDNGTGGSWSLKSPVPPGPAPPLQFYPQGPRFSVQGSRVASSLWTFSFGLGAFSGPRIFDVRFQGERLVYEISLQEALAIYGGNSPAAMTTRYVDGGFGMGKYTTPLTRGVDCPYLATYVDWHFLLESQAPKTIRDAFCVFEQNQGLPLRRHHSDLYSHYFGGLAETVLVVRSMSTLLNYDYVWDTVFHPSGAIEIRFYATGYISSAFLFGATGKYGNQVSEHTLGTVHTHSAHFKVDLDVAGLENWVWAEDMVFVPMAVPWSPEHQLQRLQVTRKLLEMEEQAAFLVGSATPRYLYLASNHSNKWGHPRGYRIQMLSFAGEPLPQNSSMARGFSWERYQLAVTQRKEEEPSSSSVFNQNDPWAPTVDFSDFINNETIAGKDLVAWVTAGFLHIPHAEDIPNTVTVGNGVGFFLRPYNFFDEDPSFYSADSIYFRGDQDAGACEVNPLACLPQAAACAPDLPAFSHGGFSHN


Tests used:
[1] = biological target: T1, recombinant human Vascular Adhesion …; assay: time-resolved immunofluorometric assay, plate coated with rhVAP-1, europium-conjugated anti-human antibody detection
Experimental: A time-resolved immunofluorometric assay was used quantitatively to examine the binding of 5F12, 4B3, 3F10, 8A4 and 8C10 to rhVAP-1. A microtiter plate was coated with rhVAP-1 and then blocked with bovine serum albumin solution. An amount of antibody between 2 and 4320 ng/ml was subsequently added to bind to rhVAP-1 and the bound antibody detected by a europium-conjugated mouse anti-human antibody (Perkin Elmer Inc.). The label was detected by measuring the time-resolved fluorescence (VICTOR³™ multilabel counter, PerkinElmer Inc.) at 615 nm. The fluorescence counts directly correlate with how much antibody was bound to its target. The sample data were then analyzed in comparison to the standard curve of a reference.

[2] = biological target: T1, recombinant human Vascular Adhesion …; assay: Biacore SPR, BTT-1023 captured on biotinylated protein G' on a streptavidin chip, rhVAP-1 as analyte
Experimental: Constant amounts of rhVAP-1 were used as an analyte for saturating concentration of mAbs (ligands). Experiments were performed using BIALITE® equipment (BIACORE® AB) and the data analyzed using Biacore software.

[3] = biological target: T1, recombinant human Vascular Adhesion …; assay: time-resolved immunofluorometric assay, plate coated with rhVAP-1, europium-conjugated anti-human antibody detection; remark: listed apart in the source
Experimental: A microtiter plate was coated with rhVAP-1 and then blocked with bovine serum albumin solution. […] The label was detected by measuring the time-resolved fluorescence (VICTOR³™ multilabel counter, PerkinElmer Inc.) at 615 nm. […] The sample data were then analyzed in comparison to the standard curve of a reference.

Binder | Kd [1] [nM] | Kd [2] [nM] | Kd [3] [nM]
fully human anti-VAP-1 monoclonal antibody 8C10 (hybridoma-derived) (antibody, human IgG1, V domains shown) VH: QVQLVESGGGVVQPGRSLRLSCAASGFTFFSYAMHWVRQTPGKGLEWVAVIWFDGSNENYVDSVKGRFTISRDNSKNTLYLQMNTLRAEDTAVYYCARDAWSYFDYWGQGTLVTVSS VL: VIQLTQSPSSLSASVGDRVTITCRASQGISRALAWYQQKPGKGPKLLIYDASSLESGVPSRFSGSGSGTDFTLTISSLQPEDFATYYCQQFNSYPLTFGGGTKVEIK | 0.21 | – | –
fully human anti-VAP-1 monoclonal antibody 3F10 (hybridoma-derived) (antibody, human IgG1, V domains shown) VH: QVQLVESGGGVVQPGRSLRLSCAASGFTFSSYAMHWVRQAPGKGLEWVAVLWFDGSNEDYADSVKGRFTISRDNSKNTLYLQMNSLRAEDTAVYYCARDGWGYFDYWGQGTLVTVSS VL: AIQLTQSPSSLSASVGDRVTITCRASQGISRALAWYQQKPGKAPKLLIYDASNLERGVPSRFSGSGSGTDFTLTISSLQPEDFATYYCQQFNSFPLTFGGGTKVEIK | 0.25 | – | –
recombinant fully human anti-VAP-1 antibody r8C10 (BTT-1023) (antibody, human IgG4 S228P, kappa, V domains shown, also called recombinant 8C10) VH: QVQLVESGGGVVQPGRSLRLSCAASGFTFFSYAMHWVRQTPGKGLEWVAVIWFDGSNENYVDSVKGRFTISRDNSKNTLYLQMNTLRAEDTAVYYCARDAWSYFDYWGQGTLVTVSS VL: VIQLTQSPSSLSASVGDRVTITCRASQGISRALAWYQQKPGKGPKLLIYDASSLESGVPSRFSGSGSGTDFTLTISSLQPEDFATYYCQQFNSYPLTFGGGTKVEIKR | – | 0.13 | 0.38
fully human anti-VAP-1 monoclonal antibody 5F12 (hybridoma-derived) (antibody, V domains shown) VH: QVQLVDSGGDVVQPGRSLRLSCAASGFSFSRSGIHWVRQAPGKGLEWVAVIWYDGIYKYYADSVKGRFTISRDNSKNTLYLQMNSLRAEDTAVYYCAREKNWGIDYWGQGTLVTVSS VL: DIQMTQSPSSLSASVGDRVTITCRASQGISSWLAWYQQKPEKAPKSLIYGASSLQSGVPSRFSGSGSGTDFTLTISSLQPEDFATYYCQQYNSYPRTFGQGTKVEIK | 0.65 | – | –
fully human anti-VAP-1 monoclonal antibody 4B3 (hybridoma-derived) (antibody, human IgG1, V domains shown) VH: EVQLVQSGGGLVHPGGSLRLSCAGSGFPVSSYGMHWVRQAPGKGLEWVSAIGVGGGTYHVDSVKGRFTISRDNAKNSLYLQMNSLRAGDMAVYYCARDPGFGEVYFDYWGQGTLVTVSS VL: not shown | 0.31 | – | –
fully human anti-VAP-1 monoclonal antibody 8A4 (hybridoma-derived) (antibody, human IgG1, V domains shown) VH: EVQLVESGGGLVQPGGSLRLSCAASGFIFSNYWMSWVRQAPGKGLEWVANIKQDGSEKYYVDSVRGRFTVSRDNAKNSLYLQMNSLRAEDTAVYYCARDYFGSGTYFFYFDYWGQGTLVTFSS VL: EIVLTQSPATLSLSPGERATLSCRASQSVSSYLAWYQQKPGQAPRLLIYDASNRATGIPARFSGSGSGTDFTLTISSLEPEDFAVYYCQQRSNWPLTFGGGTKVEIK | 0.28 | – | –
